Test results published in the supplement of paper PMC10567573.

B1: TMEM106C (parent)
chain: FTGRDSITCLTCQGTGYIPTEQVN

Variants of: B1
Assay: protein stability index of a GFP-peptide fusion (GPS, HEK-293T) (PSI 1-6); higher = more stable
Settings: c terminus: a fixed tail appended
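Also: lentivirally expressed fusions sorted by FACS into six bins by GFP to DsRed ratio, PSI derived from sequencing read proportions per bin multiplied by bin number.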

Variant	protein stability index
T11C	1.86
T11D	2.42
T11E	2.01
T11F	2.85
T11G	1.64
T11H	2.06
T11I	1.52
T11K	1.7
T11L	1.66
T11M	1.77
T11N	1.86
T11P	1.55
T11Q	1.85
T11R	1.97
T11S	2.01
T11V	2.66
T11W	2.97
T11Y	2.07
C12A	2.17
C12D	2.41
C12E	2.18

Variant	protein stability index
C12F	2.34
C12G	2.04
C12H	1.98
C12I	2.4
C12K	2
C12L	1.79
C12M	2.09
C12N	2.18
C12P	1.68
C12Q	1.95
C12R	1.85
C12S	2
C12T	1.63
C12V	1.83
C12W	2.51
C12Y	2.06
Q13A	2.23
Q13C	1.53
Q13D	1.83
Q13E	1.95
Q13F	2.17

Variant	protein stability index
Q13G	2.28
Q13H	2.09
Q13I	2.35
Q13K	1.96
Q13L	2.13
Q13M	1.75
Q13N	2.39
Q13P	1.94
Q13R	2.18
Q13S	1.92
Q13T	2.71
Q13V	2
Q13W	2.52
Q13Y	2.38
G14A	1.5
G14C	1.89
G14D	1.56
G14E	2.28
G14F	2.99
G14H	1.88
G14I	2.53

Variant	protein stability index
G14K	1.66
G14L	2.8
G14M	2.91
G14N	1.74
G14P	1.29
G14Q	1.99
G14R	2.24
G14S	1.58
G14T	2.33
G14V	2.35
G14W	1.69
T15A	2.12
T15C	2.26
T15D	1.81
T15E	1.64
T15F	2.26
T15G	1.43
T15H	2.09
T15I	2.16
T15K	2.12
